The text below walks through data of patent publication US20250326807A1 (published 2025).

Experiment [1] concerns the target T1, Recombinantly expressed fused calprotectin (His6-linker-S100A9-linker-S100A8), product code B-RCAL, BÜHLMANN … (human, UniProt P06702 1-114; P05109 1-93).
T1 chain: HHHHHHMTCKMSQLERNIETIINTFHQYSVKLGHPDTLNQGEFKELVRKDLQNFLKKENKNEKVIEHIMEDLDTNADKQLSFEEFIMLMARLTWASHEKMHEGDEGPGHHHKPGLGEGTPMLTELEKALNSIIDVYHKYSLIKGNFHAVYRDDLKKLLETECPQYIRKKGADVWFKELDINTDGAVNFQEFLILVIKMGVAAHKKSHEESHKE
The experiment in a line: fluorescence polarization.

For a further experiment, the target named is P9 D-Ala. The experiment in a line: SPR. In general terms: Surface plasmon resonance follows binding to a sensor surface in real time, without labels.
The target of another experiment is Q12 D-Ala. The experiment can be described thus: SPR.
In another experiment the target is F11 β-Ala. The experiment in a line: SPR.
The next experiment concerns the target P9 β-Ala. The experiment in a line: SPR.
A further experiment concerns the target F8 β-Ala. The experiment in a line: SPR.
The target of another experiment is M10 β-Ala. The experiment can be described thus: SPR.
The target of a further experiment is Q12 β-Ala. The experiment can be described thus: SPR.
The target of a further experiment is F11 D-Ala. The experiment in a line: SPR.
For another experiment, the target named is Y16 D-Ala. The experiment in a line: SPR.
Another experiment has as its target Y16 β-Ala. The experiment in a line: SPR.
The next experiment concerns the target F8 D-Ala. The experiment in a line: SPR.
A further experiment deals with M10 D-Ala. The experiment in a line: SPR.
For experiment [2], the target named is T1, Recombinantly expressed fused …. The experiment can be described thus: fluorescence polarization. A general note: In fluorescence polarisation assays a small probe gives low polarisation when free and higher when bound to something large.
The target is the same in experiment [3]. The experiment in a line: fluorescence polarization.
For experiment [4] the target is unchanged. The experiment in a line: fluorescence polarization.
The target is the same in experiment [5]. The experiment in a line: fluorescence polarization.
Experiment [6] has the same target.

Where two headings read alike, the source gives them in different places. Ends that are not written are not given here.

The term Kd denotes the constant that tells how readily two partners part at equilibrium.

B1: ACRTCPLFTCPSCG (peptide)
peptide: ACRTCPLFTCPSCG
modifications: not fully specified; cross-linked between cysteines (linker not named); N-terminal 5(6)-carboxyfluorescein; synthesised on rink amide AM resin
Regarding B1, the Kd in [1] was found to be 89 nM.

B2: calprotectin (other)
chain: T1 chain
As for B2, the Kd in the experiment with P9 D-Ala, in the experiment with Q12 D-Ala, with F11 β-Ala, with P9 β-Ala, in the experiment with F8 β-Ala and with M10 β-Ala was greater than 10000 nM each time. For the same molecule, the Kd with Q12 β-Ala, in the experiment with F11 D-Ala, with Y16 D-Ala, with Y16 β-Ala, with F8 D-Ala and in the experiment with M10 D-Ala was greater than 10000 nM in each case.

B3: VCQQTASRCPVWECQRCP (peptide)
peptide: VCQQTASRCPVWECQRCP
modifications: not fully specified; cross-linked between cysteines (linker not named); N-terminal 5(6)-carboxyfluorescein; synthesised on rink amide AM resin
Take B3: the Kd in [2] amounted to 55 nM.

B4: VCPCPLFRAHGCSRFSCQ (peptide)
peptide: VCPCPLFRAHGCSRFSCQ
modifications: not fully specified; cross-linked between cysteines (linker not named); N-terminal 5(6)-carboxyfluorescein; synthesised on rink amide AM resin
On to B4, for which, in experiment [3], the dissociation constant Kd was found to be 22 nM.

B5: Peptide 3 (RCPECVAFPMFQCHWYCG), phage display derived, cross-linked between cysteines (peptide)
peptide: RCPECVAFPMFQCHWYCG
modifications: not fully specified; cysteines cross-linked by a chemical linker (linker and isomer not named); N-terminal 5(6)-carboxyfluorescein; synthesised on rink amide AM resin
On to B5, for which the Kd in experiment [4] was 23 nM.

B6: TCPLNRTQCPLYACTTCP (peptide)
peptide: TCPLNRTQCPLYACTTCP
modifications: not fully specified; cross-linked between cysteines (linker not named); N-terminal 5(6)-carboxyfluorescein; synthesised on rink amide AM resin
In the case of B6, the Kd in experiment [2] came out at 34 nM.

B7: CTQSPCPLYDSHQCSCK (peptide)
peptide: CTQSPCPLYDSHQCSCK
modifications: not fully specified; cross-linked between cysteines (linker not named); N-terminal 5(6)-carboxyfluorescein; synthesised on rink amide AM resin
B7: the dissociation constant (Kd) in experiment [3] came to 38 nM.

B8: SCQCPWDLFSQHSLSDCCD (peptide)
peptide: SCQCPWDLFSQHSLSDCCD
modifications: not fully specified; cross-linked between cysteines (linker not named); N-terminal 5(6)-carboxyfluorescein; synthesised on rink amide AM resin
B8: in experiment [5], the Kd is 25 nM.

B9: GCDLAHQPCPLYKCTKCP (peptide)
peptide: GCDLAHQPCPLYKCTKCP
modifications: not fully specified; cross-linked between cysteines (linker not named); N-terminal 5(6)-carboxyfluorescein; synthesised on rink amide AM resin
Take B9: the Kd in [5] is 10 nM.

B10: Linear peptide 3 (RSPESVAFPMFQSHWYSG), all cysteines replaced by serines (peptide)
peptide: RSPESVAFPMFQSHWYSG-NH2
modifications: also: N-terminal 5(6)-carboxyfluorescein only in the fluorescence polarization assay version
Turning to B10, the Kd in [6] was 25.5 nM.
